From publication PMC5711526

Molecular target: human alpha-thrombin (Homo sapiens, UniProt P00734;P00734 328-363;364-622)
Assay: native ESI-MS

Does GGTTGGTGTGGTTGG (structured_DNA) [TBA (Bock thrombin binding aptamer, 15-mer)] bind?
Result: binds
